B1: Tyrosine-protein kinase Lyn (Homo sapiens), P07948 (parent)
chain: MGCIKSKGKDSLSDDGVDLKTQPVRNTERTIYVRDPTSNKQQRPVPESQLLPGQRFQTKDPEEQGDIVVALYPYDGIHPDDLSFKKGEKMKVLEEHGEWWKAKSLLTKKEGFIPSNYVAKLNTLETEEWFFKDITRKDAERQLLAPGNSAGAFLIRESETLKGSFSLSVRDFDPVHGDVIKHYKIRSLDNGGYYISPRITFPCISDMIKHYQKQADGLCRRLEKACISPKPQKPWDKDAWEIPRESIKLVKRLGAGQFGEVWMGYYNNSTKVAVKTLKPGTMSVQAFLEEANLMKTLQHDKLVRLYAVVTREEPIYIITEYMAKGSLLDFLKSDEGGKVLLPKLIDFSAQIAEGMAYIERKNYIHRDLRAANVLVSESLMCKIADFGLARVIEDNEYTAREGAKFPIKWTAPEAINFGCFTIKSDVWSFGILLYEIVTYGKIPYPGRTNADVMTALSQGYRMPRVENCPDELYDIMKMCWKEKAEERPTFDYLQSVLDDFYTATEGQYQQQP
partner: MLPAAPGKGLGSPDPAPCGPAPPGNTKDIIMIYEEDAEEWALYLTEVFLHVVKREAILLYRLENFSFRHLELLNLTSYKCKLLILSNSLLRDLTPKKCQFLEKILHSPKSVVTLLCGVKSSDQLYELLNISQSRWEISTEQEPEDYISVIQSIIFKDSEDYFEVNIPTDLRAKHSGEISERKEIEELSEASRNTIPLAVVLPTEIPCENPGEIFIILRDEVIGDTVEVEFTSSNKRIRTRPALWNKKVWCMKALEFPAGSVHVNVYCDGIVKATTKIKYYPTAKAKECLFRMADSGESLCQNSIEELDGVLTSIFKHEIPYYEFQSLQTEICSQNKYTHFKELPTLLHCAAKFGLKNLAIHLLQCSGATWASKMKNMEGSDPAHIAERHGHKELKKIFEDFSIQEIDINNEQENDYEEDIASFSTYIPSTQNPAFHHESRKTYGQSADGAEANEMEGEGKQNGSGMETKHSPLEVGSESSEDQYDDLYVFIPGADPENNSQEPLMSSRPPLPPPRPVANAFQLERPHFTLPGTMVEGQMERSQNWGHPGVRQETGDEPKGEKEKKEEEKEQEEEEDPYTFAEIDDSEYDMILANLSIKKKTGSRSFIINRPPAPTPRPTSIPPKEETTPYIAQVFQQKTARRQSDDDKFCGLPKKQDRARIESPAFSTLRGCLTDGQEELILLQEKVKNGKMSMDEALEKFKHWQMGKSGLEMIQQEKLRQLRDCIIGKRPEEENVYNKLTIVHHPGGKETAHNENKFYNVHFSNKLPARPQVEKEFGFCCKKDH

Variants of: B1
Conditions: with bank1_human BANK1, Q8NDB2

Variant | effect of a mutation on the interaction
K275L | decreasing interaction strength
P114L | with no effect
Y508F | with no effect
R156D;S158F | with no effect

Reference: IntAct's records for PubMed 11782428
